Tests used:
[1] = target: PD-1 on PD-1+ NFAT Jurkat cells (Promega, JA2191) (UniProt Q15116 25-288, limits assumed); assay: cell-based or functional assay
[2] = target: T1, L1 (DV1-GV4), soluble human Vδ1/Vγ4 γδ TCR heterodimer in leucine zipper format (human); assay: SPR (Reichert 4SPR), antibody on Protein A chip, antigen flown over
T1 construct: Biotinylated in the DELFIA ranking; also called Antigen L1 (TRDV1/TRGV4); human DV1-GV4; not shown: gamma chain: Vγ4 (TRGV4) domain on a TCR constant region, leucine zipper, histidine tag

Recombinant human PD-1 = target: T2, Recombinant human PD-1 (human, UniProt Q15116 25-167, limits assumed); assay: SPR (Reichert 4SPR), antibody on Protein A chip, antigen flown over; column head prints TIGIT
T2 construct: also called programmed cell death protein 1
Procedure: Recombinant human Vδ1 heterodimer or human PD-1 was flown over the cell at a top concentration of 100 nM.

[3] = target: T3, Vδ1 chain of the γδ TCR on human Vδ1 γδ T cells (human); assay: flow cytometry on Vδ1 γδ T-cells, anti-human IgG secondary antibody, % cells bound IgG
T3 construct: whole, on cells; also called cell surface Vδ1 TCR; Vδ1-positive γδ T cells
Procedure: (§1) After washing, cells were incubated for a further 15 minutes with anti-human IgG secondary antibodies before washing and fixing. The amount of antibody bound to each cell type was determined by flow cytometry.

[4] = target: T4, Cyno DV1/GV77 antigen, recombinant cynomolgus Vδ1 heterodimer (cynomolgus monkey); assay: SPR, captured IgG, cyno DV1-GV77 flown over
T4 construct: also called cyno TRDV1; Cyno DV1-77; not shown: delta CDR3/J, TCR constant region, zipper and tag; the whole gamma chain GV77

[5] = target: T1, L1 (DV1-GV4), soluble human Vδ1/Vγ4 γδ …; assay: SPR, captured IgG, human DV1-GV4 flown over
[6] = target: T4, Cyno DV1/GV77 antigen, recombinant …; assay: DELFIA ELISA, cyno antigen; heat map cell of the clone
[7] = target: T1, L1 (DV1-GV4), soluble human Vδ1/Vγ4 γδ …; assay: DELFIA ELISA, 0.4 nM human TRDV1 antigen; heat map cell of the clone
[8] = target: T1, L1 (DV1-GV4), soluble human Vδ1/Vγ4 γδ …; assay: SPR (Reichert 4SPR), antibody on Protein A chip
[9] = target: T4, Cyno DV1/GV77 antigen, recombinant …; assay: SPR (Reichert 4SPR), antibody on Protein A chip
[10] = target: T1, L1 (DV1-GV4), soluble human Vδ1/Vγ4 γδ …; assay: SPR (Reichert 4SPR), antibody on Protein A chip, Vδ1 heterodimer at 6.25-100 nM as analyte
[11] = target: T4, Cyno DV1/GV77 antigen, recombinant …; assay: as above
[12] = target: T5, OX40 on OX40+ NFAT Jurkat cells (human, UniProt P43489); assay: cell-based or functional assay
T5 sequence (receptor, looked up): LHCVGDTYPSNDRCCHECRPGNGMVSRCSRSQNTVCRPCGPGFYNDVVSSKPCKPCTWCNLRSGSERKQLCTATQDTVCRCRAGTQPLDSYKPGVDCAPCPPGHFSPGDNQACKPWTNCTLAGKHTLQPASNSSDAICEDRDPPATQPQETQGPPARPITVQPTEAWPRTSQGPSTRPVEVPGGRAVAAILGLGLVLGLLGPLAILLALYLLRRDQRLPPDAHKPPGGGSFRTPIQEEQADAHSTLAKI

[13] = target: T1, L1 (DV1-GV4), soluble human Vδ1/Vγ4 γδ …; assay: SPR (Reichert 4SPR), antibody on Protein A chip, antigen flown over; remark: listed apart in the source
Procedure: (§2) Recombinant human Vδ1 heterodimer or human OX40 was flown over the cell at a top concentration of 100 nM.

Recombinant human OX40 = target: T6, Recombinant human OX40 (human, UniProt P43489 29-216, limits assumed); assay: as above
T6 construct: also called CD134
T6 sequence (looked up): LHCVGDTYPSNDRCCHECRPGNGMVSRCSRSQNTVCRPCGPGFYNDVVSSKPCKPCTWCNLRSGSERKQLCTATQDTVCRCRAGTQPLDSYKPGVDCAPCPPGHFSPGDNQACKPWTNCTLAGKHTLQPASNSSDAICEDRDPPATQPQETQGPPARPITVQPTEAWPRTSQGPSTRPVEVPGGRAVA
Procedure: as §2

[14] = target: T3, Vδ1 chain of the γδ TCR on human Vδ1 γδ …; assay: flow cytometry on Vδ1 γδ T-cells, anti-human IgG secondary antibody, % cells bound IgG; remark: listed apart in the source
[15] = target: T7, OX40 on activated CD4 T-cells; assay: flow cytometry on anti-CD3/anti-CD28-activated CD4 T-cells, anti-human IgG secondary antibody, % cells bound IgG
T7 construct: also called OX40+ CD4 T-cells
T7 chain: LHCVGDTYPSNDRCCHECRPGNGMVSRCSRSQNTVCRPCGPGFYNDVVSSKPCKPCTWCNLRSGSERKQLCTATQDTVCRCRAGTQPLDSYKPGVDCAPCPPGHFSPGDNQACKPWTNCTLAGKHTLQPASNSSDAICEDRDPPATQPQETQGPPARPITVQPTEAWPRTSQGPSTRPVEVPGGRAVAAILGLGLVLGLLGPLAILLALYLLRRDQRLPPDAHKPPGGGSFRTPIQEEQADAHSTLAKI
Procedure: Initially CD4+ T-cells were negatively selected by magnetic sorting from PBMC buffy coats extracted from whole blood. Following activation by anti-CD3/anti-CD28 antibodies conjugated to Dynabeads (Invitrogen), cell surface expression of OX40 was elevated on CD4 T-cells. […] After washing, cells were incubated for a further 15 minutes with anti-human IgG secondary antibodies before washing and fixing. The amount of antibody bound to each cell type was determined by flow cytometry.

[16] = target: T1, L1 (DV1-GV4), soluble human Vδ1/Vγ4 γδ …; assay: SPR (Reichert 4SPR), antibody on Protein A chip, antigen flown over; remark: listed apart in the source
Procedure: (§3) Recombinant human Vδ1 heterodimer or human MSLN was flown over the cell at a top concentration of 100 nM with the following parameters: 180 s association, 480 s dissociation, flowrate 25 μL/min, running buffer PBS+0.05% Tween 20. All experiments were performed at room temperature.

Recombinant human MSLN = target: T8, Recombinant human MSLN (human, UniProt Q13421 296-580, limits assumed); assay: SPR (Reichert 4SPR), antibody on Protein A chip, antigen flown over; column head prints FAPα
T8 construct: also called mesothelin
Procedure: as §3

[17] = target: T3, Vδ1 chain of the γδ TCR on human Vδ1 γδ …; assay: flow cytometry on Vδ1 γδ T-cells, anti-human IgG secondary antibody, % IgG bound cells
Procedure: as §1

T3 sequence (A0A1B0GX56 22-115, stated change not applied): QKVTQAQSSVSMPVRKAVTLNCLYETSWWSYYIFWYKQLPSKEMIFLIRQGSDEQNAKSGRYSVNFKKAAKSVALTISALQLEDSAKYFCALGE
T4 sequence (delta, as listed by the source limits assumed): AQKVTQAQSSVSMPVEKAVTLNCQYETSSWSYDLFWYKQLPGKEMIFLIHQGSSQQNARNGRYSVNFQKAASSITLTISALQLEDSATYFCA
T1 sequence (main, as listed by the source): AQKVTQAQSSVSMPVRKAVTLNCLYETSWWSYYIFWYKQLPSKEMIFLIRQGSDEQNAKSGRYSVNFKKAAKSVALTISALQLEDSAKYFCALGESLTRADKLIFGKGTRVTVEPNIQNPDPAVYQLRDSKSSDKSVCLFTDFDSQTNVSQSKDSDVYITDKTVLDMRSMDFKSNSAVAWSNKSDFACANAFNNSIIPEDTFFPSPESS
T2 sequence (Q15116 25-167 limits assumed): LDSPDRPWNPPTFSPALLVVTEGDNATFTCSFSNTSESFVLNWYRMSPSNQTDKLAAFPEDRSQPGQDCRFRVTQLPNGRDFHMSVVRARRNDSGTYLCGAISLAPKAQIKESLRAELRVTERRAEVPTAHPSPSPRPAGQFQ
T8 sequence (Q13421 other isoform, or with tags, fused parts or gaps limits assumed): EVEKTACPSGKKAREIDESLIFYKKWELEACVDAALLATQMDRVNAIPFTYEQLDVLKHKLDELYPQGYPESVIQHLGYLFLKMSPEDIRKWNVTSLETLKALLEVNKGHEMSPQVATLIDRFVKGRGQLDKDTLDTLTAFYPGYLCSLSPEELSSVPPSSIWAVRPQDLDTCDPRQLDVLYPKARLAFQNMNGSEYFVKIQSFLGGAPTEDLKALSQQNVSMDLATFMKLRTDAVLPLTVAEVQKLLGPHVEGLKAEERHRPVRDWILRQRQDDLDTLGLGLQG
PD-1 on PD-1+ NFAT Jurkat cells (Promega, JA2191), sequence (Q15116 25-288 limits assumed): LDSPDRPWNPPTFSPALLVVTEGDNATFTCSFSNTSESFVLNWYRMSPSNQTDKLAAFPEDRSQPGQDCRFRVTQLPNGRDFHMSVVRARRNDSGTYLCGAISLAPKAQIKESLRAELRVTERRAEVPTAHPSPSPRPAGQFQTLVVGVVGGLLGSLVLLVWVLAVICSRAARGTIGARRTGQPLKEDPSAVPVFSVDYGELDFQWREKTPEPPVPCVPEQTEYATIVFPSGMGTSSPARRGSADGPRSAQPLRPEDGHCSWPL

B1: Anti-Vδ1xAnti-PD-1 (ADT1-4-2xpembrolizumab) bispecific antibody (bispecific antibody, human IgG1, kappa)
light: EIVLTQSPATLSLSPGERATLSCRASKGVSTSGYSYLHWYQQKPGQAPRLLIYLASYLESGVPARFSGSGSGTDFTLTISSLEPEDFAVYYCQHSRDLPLTFGGGTKVEIKRTVAAPSVFIFPPSDEQLKSGTASVVCLLNNFYPREAKVQWKVDNALQSGNSQESVTEQDSKDSTYSLSSTLTLSKADYEKHKVYACEVTHQGLSSPVTKSFNRGEC
heavy: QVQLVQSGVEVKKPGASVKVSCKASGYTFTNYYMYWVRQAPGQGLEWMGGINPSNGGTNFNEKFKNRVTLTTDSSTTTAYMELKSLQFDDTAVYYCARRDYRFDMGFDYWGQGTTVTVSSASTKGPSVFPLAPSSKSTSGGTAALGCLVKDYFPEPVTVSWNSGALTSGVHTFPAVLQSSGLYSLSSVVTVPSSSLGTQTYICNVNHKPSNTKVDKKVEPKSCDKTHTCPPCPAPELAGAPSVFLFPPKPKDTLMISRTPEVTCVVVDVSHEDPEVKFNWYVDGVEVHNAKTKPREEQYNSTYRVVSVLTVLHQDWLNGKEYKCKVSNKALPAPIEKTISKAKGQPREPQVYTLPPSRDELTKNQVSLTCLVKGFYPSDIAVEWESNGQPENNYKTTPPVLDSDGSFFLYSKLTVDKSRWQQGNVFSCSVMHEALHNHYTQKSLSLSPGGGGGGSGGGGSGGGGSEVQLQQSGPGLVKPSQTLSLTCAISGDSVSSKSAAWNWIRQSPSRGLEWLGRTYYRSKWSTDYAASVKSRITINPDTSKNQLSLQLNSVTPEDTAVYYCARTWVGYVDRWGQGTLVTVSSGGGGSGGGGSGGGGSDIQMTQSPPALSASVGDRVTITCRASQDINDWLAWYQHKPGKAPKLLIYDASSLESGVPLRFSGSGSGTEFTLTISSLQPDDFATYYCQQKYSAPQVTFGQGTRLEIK
notes: also called PD-1xADT1-4-2; Vδ1-PD-1 bispecific antibody
[1]
  EC50 (read off the curve), PD-1/PD-L1 blockade reporter assay: ~1 nM
[2]
  Kd: 1.5 nM
Recombinant human PD-1
  Kd: 0.9 nM
[3]
  EC50 (read off the curve): ~0.7 nM

B2: ADT1-4-8 (antibody, V domains shown)
VH: EVQLQQSGPGLVKPSQTLSLTCAISGDSVSSKSAAWNWIRQSPSRGLEWLGRTYYRSKWSTDYAASVKSRITINPDTSKNQLSLQLNSVTPEDTAVYYCARTWVGYADVWGQGTLVTVSS
VL: DIQMTQSPPALSASVGDRVTITCRASQDINDWLAWYQHKPGKAPKLLIYDASSLESGVPLRFSGSGSGTEFTLTISSLQPDDFATYYCQQKYSAPQVTFGQGTRLEIK
[4]
  Kd: 15.1 nM
[5]
  Kd: 0.541 nM
[6]
  ELISA signal (heat map): 139000
[7]
  ELISA signal (heat map): 42700

B3: ADT1-4-2 (L74S) (antibody, V domains shown)
VH: EVQLQQSGPGLVKPSQTLSLTCAISGDSVSSKSAAWNWIRQSPSRGLEWLGRTYYRSKWSTDYAASVKSRITINPDTSKNQLSLQLNSVTPEDTAVYYCARTWVGYVDRWGQGTLVTVSS
VL: DIQMTQSPPALSASVGDRVTITCRASQDINDWLAWYQHKPGKAPKLLIYDASSLESGVPSRFSGSGSGTEFTLTISSLQPDDFATYYCQQKYSAPQVTFGQGTRLEIKR
notes: Captured on Protein A
[8]
  fold reduction in affinity against ADT1-4-2: ~11 fold
[9]
  fold reduction in affinity against ADT1-4-2: ~23 fold
[10]
  Kd: 4 nM
[11]
  Kd: 61 nM

B4: Anti-Vδ1xanti-OX40 (ADT1-4-2xpogalizumab) bispecific antibody (bispecific antibody, human IgG1, kappa)
light: DIQMTQSPPALSASVGDRVTITCRASQDINDWLAWYQHKPGKAPKLLIYDASSLESGVPLRFSGSGSGTEFTLTISSLQPDDFATYYCQQKYSAPQVTFGQGTRLEIKRTVAAPSVFIFPPSDEQLKSGTASVVCLLNNFYPREAKVQWKVDNALQSGNSQESVTEQDSKDSTYSLSSTLTLSKADYEKHKVYACEVTHQGLSSPVTKSFNRGEC
heavy: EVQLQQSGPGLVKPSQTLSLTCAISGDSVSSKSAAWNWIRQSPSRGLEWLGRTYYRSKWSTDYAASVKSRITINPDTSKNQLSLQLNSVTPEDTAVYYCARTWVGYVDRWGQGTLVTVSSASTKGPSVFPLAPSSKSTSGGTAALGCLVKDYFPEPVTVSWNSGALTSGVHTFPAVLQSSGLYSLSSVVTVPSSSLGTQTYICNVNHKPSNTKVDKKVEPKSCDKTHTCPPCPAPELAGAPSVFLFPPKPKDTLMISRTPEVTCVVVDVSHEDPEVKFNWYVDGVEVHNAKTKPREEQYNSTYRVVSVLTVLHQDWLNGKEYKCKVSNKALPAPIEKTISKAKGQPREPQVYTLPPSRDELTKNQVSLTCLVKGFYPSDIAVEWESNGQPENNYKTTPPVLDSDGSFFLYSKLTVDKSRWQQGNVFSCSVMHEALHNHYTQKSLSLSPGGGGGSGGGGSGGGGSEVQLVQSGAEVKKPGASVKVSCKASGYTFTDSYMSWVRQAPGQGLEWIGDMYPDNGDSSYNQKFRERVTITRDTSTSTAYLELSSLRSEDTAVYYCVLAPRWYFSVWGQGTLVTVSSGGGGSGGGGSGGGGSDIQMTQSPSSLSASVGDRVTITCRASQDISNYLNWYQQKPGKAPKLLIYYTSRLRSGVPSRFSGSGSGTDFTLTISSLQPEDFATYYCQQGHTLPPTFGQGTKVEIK
notes: also called ADT1-4-2xOX40; Vδ1-OX40 bispecific antibody
[12]
  EC50 (read off the curve), OX40+ NFAT Jurkat activation assay: ~20 nM
[13]
  Kd: 1.2 nM
Recombinant human OX40
  Kd: 1.63 nM
[14]
  EC50 (read off the curve): ~0.3 nM
[15]
  EC50 (read off the curve): ~2 nM

B5: Anti-Vδ1xMSLN (ADT1-4-2xMSLN) bispecific antibody (bispecific antibody, human IgG1, kappa)
light: DIQMTQSPPALSASVGDRVTITCRASQDINDWLAWYQHKPGKAPKLLIYDASSLESGVPLRFSGSGSGTEFTLTISSLQPDDFATYYCQQKYSAPQVTFGQGTRLEIKRTVAAPSVFIFPPSDEQLKSGTASVVCLLNNFYPREAKVQWKVDNALQSGNSQESVTEQDSKDSTYSLSSTLTLSKADYEKHKVYACEVTHQGLSSPVTKSFNRGEC
heavy: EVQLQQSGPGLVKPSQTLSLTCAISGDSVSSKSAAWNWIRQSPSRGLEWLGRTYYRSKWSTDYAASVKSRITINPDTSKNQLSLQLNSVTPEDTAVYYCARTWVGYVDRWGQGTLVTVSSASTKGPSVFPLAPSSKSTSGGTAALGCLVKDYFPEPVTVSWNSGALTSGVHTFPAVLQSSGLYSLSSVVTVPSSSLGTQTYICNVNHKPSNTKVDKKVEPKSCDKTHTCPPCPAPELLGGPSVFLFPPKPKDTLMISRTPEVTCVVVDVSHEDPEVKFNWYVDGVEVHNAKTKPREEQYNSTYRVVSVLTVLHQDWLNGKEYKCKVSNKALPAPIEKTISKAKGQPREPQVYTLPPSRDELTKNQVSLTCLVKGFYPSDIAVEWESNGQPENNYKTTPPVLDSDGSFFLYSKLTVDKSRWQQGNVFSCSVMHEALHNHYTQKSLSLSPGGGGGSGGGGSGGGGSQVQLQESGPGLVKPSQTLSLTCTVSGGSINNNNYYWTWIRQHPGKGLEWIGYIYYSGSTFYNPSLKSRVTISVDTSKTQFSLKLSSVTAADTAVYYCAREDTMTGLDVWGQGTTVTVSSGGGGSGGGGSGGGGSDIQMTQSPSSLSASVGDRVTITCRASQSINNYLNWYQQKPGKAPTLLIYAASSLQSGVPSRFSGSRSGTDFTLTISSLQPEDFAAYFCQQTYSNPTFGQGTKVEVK
notes: also called ADT1-4-2 × MSLN; MSLN-Vδ1 bispecific antibody
[16]
  Kd: 0.026 nM
Recombinant human MSLN
  Kd: 0.87 nM
[17]
  EC50 (read off the curve): ~0.5 nM

Source: patent US20230028110A1 (ADAPTATE BIOTHERAPEUTICS, published 2023)
